Results published in the RNAGym collection of RNA variant scans (doi:10.1073/pnas.2313332121).

B1: TPR t1 (parent)
chain: GACCAAUCUGCCCUCAGAGCUCGAGAACAUCUUCGGAUGCAGAGGAGGCAGGCUUCGGUGGCGCGAUAGCGCCAACGUCCUCAACCUCCAAUGCAUCCCACCACAUGAUGAUGCCUGAAGAGCCUUGGUUUUUUG

Variants of: B1
Test: polymerase ribozyme fitness, log enrichment relative to wild type (log ratio); higher = more active; in vitro selection for triplet polymerase activity
Summary of the method: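 Each subunit of a heterodimeric triplet polymerase ribozyme was mutagenized into a library by PCR, transcribed, and subjected to one round of in vitro selection, run in triplicate. Libraries were annealed with a biotinylated primer, the partner subunit and triplets, incubated frozen at −7 °C, and extended constructs were gel-excised, captured on streptavidin beads and recovered by RT-PCR. Input and output libraries were sequenced on Illumina, keeping genotypes with ≥10 input reads and ≥1 read per output. Fitness is log base 2 of genotype enrichment divided by wild-type enrichment, from inverse-variance-weighted replicate averages.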

Variant	polymerase ribozyme fitness (log ratio)
GACCAAUCUGCCCUCAGAGCUCGAGAACAUCUUCGGAUGCAGAGGAGGCAGGCUUCGGUGGCGCGAUAGCCCCAACGUCCUCAACCACCAAUGCAUCCCACCACAUGAUGAUGCCUGAAGAGACUUGGUUUUUUG	-2.66
GACCAAUCUGCCCUCAGAGCUCGAGAACAUCUUCGGAUGCAGAGGAGGCAGGCUUCGGUGGCGCGAUAGCUCCAACGUCCUCAGCCUCCAAUGCAUCCCACCACAUGAUGAUGCCUGAAGAGCCUCGGUUUUAUG	-2.74
GACCAAUCUGCCCUCAGAGCUCGAGAACAUCUUCGGAUGCAGAGGAGGCAGGCUUCGGUGGCGCGAUAGCUCCUACGUCCUCAACCUCCAAUGCUUCCCACCACAUGAUGAGGCCUGAAGAGCCUUGGUUUUUUG	-3.05
GACCAAUCUGCCCUCAGAGCUCGAGAACAUCUUCGGAUGCAGAGGAGGCAGGCUUCGGUGGCGCGAUAGCUCCAACGUCCUCAACCUCCAAUGCAUCCCACCCCAUGAUGAUGCCUGAAGAGCCUUGGUUUUUUG	-5.76
GACCAAUCUGCCCUCAGAGCUCGAGAACAUCUUCGGAUGCAGAGGAGGCAGGCUUCGGUGGCGCGAUAGCUCCAACGUCCUCAACCUCCAAUGCAUCCCACCGCAUGAUGAUGCCUGAAGAGCCUUGGUUUUUUG	-5.01
GACCAAUCUGCCCUCAGAGCUCGAGAACAUCUUCGGAUGCAGAGGAGGCAGGCUUCGGUGGCGCGAUAGCUCCAACGUCCUCAACCUCUAAUGCAUCCCAUCACAUGAUGAUGCCUGAAGAGUCUUGCUUUUUUG	-1.14
GACCAAUCUGCCCUCAGAGCUCGAGAACAUCUUCGGAUGCAGAGGAGGCAGGCUUCGGUGGCGCGAUAGCUCCAACGUCCUCACCCUCCAAUGCAUCCCACCACAUGAUGAUGCCUGAAGAGCCUUGGUUUUUUG	-0.343
GACCAAUCUGCCCUCAGAGCUCGAGAACAUCUUCGGAUGCAGAGGAGGCAGGCUUCGGUGGCGCGAUAGCUCCAACGUCCUCAACCUCCAAUGCAUCCCACCACAUGAUGAUGCCUGAAGAGCUUUGGUUUUUUG	1.13
GACCAAUCUGCCCUCAGAGCUCGAGAACAUCUUCGGAUGCAGAGGAGGCAGGCUUCGGUGGCGCGAUAGCCCCAACGUCCUCAACCUCCAAUGCAUCCCACCACAUGAUGAUACCUGAAGAGCCUUGAUUUUUUG	-3.16
GACCAAUCUGCCCUCAGAGCUCGAGAACAUCUUCGGAUGCAGAGGAGGCAGGCUUCGGUGGCGCGAUAGCUCCAACGUCCGCAACCUCCAAUGCAUCCCACCACAUGAUGAUGCCUGAAGAGCCUUGGUUUUUUG	-4.34
GACCAAUCUGCCCUCAGAGCUCGAGAACAUCUUCGGAUGCAGAGGAGGCAGGCUUCGGUGGCGCGAUAGCCCCAACGUCCUCAACCUCCAAUGCAUCCCACCACAUGAUGAUGCCUUAAGAGCCUUGGUUUUUUG	-3.08
GACCAAUCUGCCCUCAGAGCUCGAGAACAUCUUCGGAUGCAGAGGAGGCAGGCUUCGGUGGCGCGAUAGCUCCAACGUCCUCAACCUCCAAUGCAUCCCACCACAUGAUGAUGCCUGAACAGCCUUGGUUUUUUG	0.378
GACCAAUCUGCCCUCAGAGCUCGAGAACAUCUUCGGAUGCAGAGGAGGCAGGCUUCGGUGGCGCGAUAGCUCGAACGUCCUCAACCUCCAAUGCCUCCCACCACAUGAUGAUGCCUGAAGAGCUUUGUCUUUUUG	-7.5
GACCAAUCUGCCCUCAGAGCUCGAGAACAUCUUCGGAUGCAGAGGAGGCAGGCUUCGGUGGCGCGAUAGCUACAACGUCCUCAACCUCAAAUGCAUCCCACCACAUGAUGAUGCCUAAAGAGCCUUGGUUUUUUG	-5.63
GACCAAUCUGCCCUCAGAGCUCGAGAACAUCUUCGGAUGCAGAGGAGGCAGGCUUCGGUGGCGCGAUAGCUCCAACGUCAUCAACCUCCAAUGCAUCCCACCACAUGAUGAUGCCUGAAGAGCCUUGGUUUUUUG	-5.28
GACCAAUCUGCCCUCAGAGCUCGAGAACAUCUUCGGAUGCAGAGGAGGCAGGCUUCGGUGGCGCGAUAGCUCCAACGUCCUCAACCUCCAAUGCAUCCUACCACAUGAUGAUGCCUGAAUAGCCUUGGUUUUUUG	-4.26
GACCAAUCUGCCCUCAGAGCUCGAGAACAUCUUCGGAUGCAGAGGAGGCAGGCUUCGGUGGCGCGAUAGCCCCAACGUCCUCAACCUCCAAUGCAUCCCACCACAUGAUGAUGCCUGAAGAGCCUUGGUGUUUUG	-1.76
GACCAAUCUGCCCUCAGAGCUCGAGAACAUCUUCGGAUGCAGAGGAGGCAGGCUUCGGUGGCGCGAUAGCCCCAACGUCCCCAACCUCCAAUGCAUCCCACCACAUGAUGAUGCCUGAAGAGCCUUGGCAUUUUG	-3.37
GACCAAUCUGCCCUCAGAGCUCGAGAACAUCUUCGGAUGCAGAGGAGGCAGGCUUCGGUGGCGCGAUAGCUCCAACGUCCUCAACCUCCAAUGCAUCCCACCACAUGAUGAUGCCUGAAGAGCCUUGGUUUUUUC	0.388
GACCAAUCUGCCCUCAGAGCUCGAGAACAUCUUCGGAUGCAGAGGAGGCAGGCUUCGGUGGCGCGAUAGCCCCAACGGCCUCAACCUCCAAUGCAUCCCACCACAUGAUGAUGCCUGAAGAGCCUUGGUUUUUUG	-3.19
GACCAAUCUGCCCUCAGAGCUCGAGAACAUCUUCGGAUGCAGAGGAGGCAGGCUUCGGUGGCGCGAUAGCUCCAACGUCCUCAACCUCCAAUGCAUCCUACCACAUGAUGAUGCCUGAAGAGCCUUGGAUUUUUG	-5.39
